From patent publication US20040029178A1, “Novel g protein-coupled receptor proteins and dnas thereof” (priority 2000, published 2004)
Peptide text beside a SMILES is read from it.

Columns and labels:
TGR26 [1] = target: T1, TGR26 (Rattus norvegicus, UniProt Q56UD9); experiment: Receptor binding using [125I-Tyr10]-hGPR8L (1-23) and membrane fraction of TGR26 expressing CHO cells; conditions: for IC50: membrane fraction of TGR26 expressing CHO cells, [125I-Tyr10]-hGPR8L (1-23), method of Example 8; for inhibition for the specific binding of [125I-Tyr10]-hGPR8L (1-23): membrane fraction of TGR26 expressing cells, in words
T1 construct: expressed in transfected cells; whole cells in A1, membrane fraction in A2 and A3
T1 sequence (Q56UD9 1-329): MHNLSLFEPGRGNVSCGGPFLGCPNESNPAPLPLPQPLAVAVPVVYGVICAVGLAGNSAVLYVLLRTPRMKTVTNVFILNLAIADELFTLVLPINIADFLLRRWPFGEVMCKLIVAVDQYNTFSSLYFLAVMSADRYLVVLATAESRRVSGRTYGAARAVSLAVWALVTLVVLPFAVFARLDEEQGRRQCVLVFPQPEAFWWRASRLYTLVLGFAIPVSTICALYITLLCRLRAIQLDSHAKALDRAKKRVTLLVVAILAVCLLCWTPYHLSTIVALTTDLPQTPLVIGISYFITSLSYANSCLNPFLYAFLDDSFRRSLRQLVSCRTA
Method: Using [^125I-Tyr^10]-hGPR8L (1-23) prepared by the method described in Reference Example 15 and a cell membrane fraction prepared from TGR26 expressing cells as described in Example 6, a receptor binding assay was carried out as follows.
Cell membrane fraction prepared from TGR26 expressing cells was diluted to various concentration with assay buffer (25 mM Tris-HCl, 5 mM EDTA, 0.05% CHAPS (3-[(3-Cholamidopropyl) Dimethyl-Ammonio]-1-Propanesulfonate), 0.1% BSA, 0.5 mM PMSF, 1 μg/ml Pepstatin, 20 μg/ml Leupeptin, 4 μg/ml E-64, pH 7.4), and 200 μl each of the diluent was dispensed into polypropilene test tube (Falcon 2053). In order to determine an amount of maximum binding, 2 μl of DMSO and 2 μl of 7 nM [^125I-Tyr^10]-hGPR8L (1-23) were added to the membrane fraction solution. Further, in order to determine a non-specific binding, 2 μl of 100 μM hGPR8L (1-23)/DMSO solution and 2 μl of 7 nM [^125I-Tyr^10]-hGPR8L (1-23) were added to the membrane fraction solution. The reaction was done at 25° C. for 75 minutes, and the reaction mixture was filtered by suction filtration using Whatman glassfilter (GF-F) treated with polyethyleneimine. In addition, the filter was washed twice with 1.5 ml of washing buffer (25 mM Tris-HCl, 5 mM EDTA, 0.05% CHAPS, 0.1% BSA, pH 7.4). After filtration, a radioactivity remaining on the filter was counted using γ-counter, and an amount of specific binding was estimated by subtracting an amount of non-specific binding from an amount of maximum binding.
Where the concentration of membrane fraction was set to 3 μg/ml, an inhibition for the specific binding of [125I-Tyr^10]-hGPR8L (1-23) to the membrane fraction of TGR26 expressing cells by hGPR8L (1-23) and hGPR8L (1-30) was investigated.
A receptor binding activity of human- and porcine-homologue derivatives of GPR8 ligand peptide obtained in the reference examples was measured using a membrane fraction of TGR26 expressing CHO cells and [^125I-Tyr^10]-hGPR8L (1-23) by the method described in Example 8. The receptor binding activity is represented by concentration of 50% inhibition for binding (IC50 value).

TGR26 [2] = target: T1, TGR26; experiment: Inhibition of intracellular cAMP production using TGR26 expressing CHO cells; format: cell-based; conditions: 2 μM forskolin, various concentrations
Method: TGR26 expressing CHO cells prepared in Example 3 were seeded on 24-well plate at 5×10^4 cells/well and cultivated for 48 hours. The cells were washed with MEMα buffer (pH 7.4) containing 0.2 mM 3-isobutyl-methylxanthine, 0.05% BSA (bovine serum albumine) and 20 mM HEPES [hereafter, MEMα buffer (pH 7.4) containing 0.2 mM 3-isobutyl-methylxanthine, 0.05% BSA (bovine serum albumine) and 20 mM HEPES may be referred to as reaction buffer]. Then, 0.5 ml of the reaction buffer was added to the cells and the suspension was incubated for 30 minutes in the incubator. After removal of the reaction buffer and newly adding 0.25 ml of the reaction buffer to the cells, an appropriate concentration of sample in DMSO solution and 0.25 ml of the reaction buffer containing 2 μM forskolin were added to the cells and the mixture was reacted at 37° C. for 30 minutes. For termination of the reaction, 100 μl of 20% perchloric acid was added. Subsequently, the mixture was stood on ice for an hour to extract intracellular cAMP. The cAMP level in the extract was measured using the cAMP EIA Kit (Amersham Pharmacia Biotech).
The human homologue of GPR8 ligand peptide consisting of 23 residues represented by […], which was obtained in Reference Example 12 (hereafter, sometimes referred to as hGPR8L (1-23)), or the human homologue of GPR8 ligand peptide consisting of 30 residues represented by […], which was obtained in Reference Example 13 (hereafter, sometimes referred to as hGPR8L (1-30)) was administered at various concentrations to […] TGR26 expressing CHO cells by the method described in Example 4, and an inhibiting activity of intracellular cAMP production was measured.
In the figure, when an amount subtracted intracellular cAMP level with the reaction buffer from intracellular cAMP level with the reaction buffer containing forskolin is indicated as 100%, the inhibiting activity of cAMP synthesis is indicated as an amount subtracted intracellular cAMP level with hGPR8L (1-23) or hGPR8L (1-30) from intracellular cAMP level with the reaction buffer by representation of percentage (%).

TGR26 [3] = target: T1, TGR26; experiment: GTPγS binding activity using a membrane fraction of TGR26 expressing CHO cells; format: biochemical; conditions: various concentrations
Method: Promoting activity for [^35S]-guanosine 5′-(γ-thio) triphosphate (GTPγS) binding to a membrane fraction of TGR26 expressing cells was assayed in accordance with the following method.
To 1×10^8 of TGR26 expressing CHO cells, 10 ml of homogenating buffer (10 mM NaHCO3, 5 mM EDTA, 0.5 mM PMSF (phenylmethylsulfonyl fluoride), 1 μg/ml Pepstatin, 4 μg/ml E-64, 20 μg/ml Leupeptin) was added, and the cells were disrupted using Polytron (12,000 rpm, 1 minute). Supernatant was obtained from the disrupted cell suspension by centrifugation (1,000 g, 15 minutes). In addition, the supernatant was ultracentrifuged (Beckman Type 30 rotor, 30,000 rpm, 1 hour), and precipitate obtained was kept as a membrane fraction of TGR26 expressing CHO cells.
The membrane fraction of TGR26 expressing CHO cells was diluted with membrane dilution buffer (50 mM Tris HCl buffer (pH 7.4), 5 mM MgCl2, 150 mM NaCl, 1 μM GDP, 0.1% BSA) to prepare a cell membrane fraction solution for assay at 30 μg/ml of protein concentration. To 200 μl of membrane fraction solution for assay, 2 μl of 50 nM [^35S]-guanosine 5′-(γ-thio) triphosphate (NEN) and 2 μl of sample/DMSO solution having an appropriate concentration were added. Then the mixture was incubated at 25° C. for one hour. The mixture was filtrated, and further the filter was washed twice with 1.5 ml of washing buffer (50 mM Tris HCl buffer (pH 7.4), 5 mM MgCl2, 1 mM EDTA, 0.1% BSA). Finally, a radioactivity on the filter was determined by liquid scintillation counter.
Various concentration of hGPR8L (1-23) or hGPR8L (1-30) was mixed with a membrane fraction of the TGR26 expressing cell in accordance with the method described in Example 6, and a promoting activity of GTPγS binding was assayed.

Row | Compound | IC50 (TGR26 [1]) [nM] | inhibiting activity of intracellular cAMP production (TGR26 [2]) | promoting activity of GTPγS binding (TGR26 [3]) | inhibition for the specific binding of [125I-Tyr10]-hGPR8L (1-23) (TGR26 [1])
1 | CSCC[C@H](NC(=O)[C@H](CC(C)C)NC(=O)[C@H](CC(C)C)NC(=O)CNC(=O)[C@H](C)NC(=O)[C@H](C)NC(=O)[C@H](CCCNC(=N)N)NC(=O)CNC(=O)[C@@H](NC(=O)[C@@H](NC(=O)[C@H](Cc1c[nH]cn1)NC(=O)[C@H](Cc1ccc(O)cc1)NC(=O)[C@H](CCCNC(=N)N)NC(=O)[C@@H]1CCCN1C(=O)[C@H](CO)NC(=O)[C@H](C)NC(=O)[C@@H](NC(=O)[C@H](Cc1c[nH]cn1)NC(=O)[C@H](CCCCN)NC(=O)[C@@H](N)Cc1ccc(O)cc1)C(C)C)[C@@H](C)O)C(C)C)C(=O)NCC(=O)N[C@@H](CC(C)C)C(=O)O [hGPR8L (2-23), Tyr-Lys-His-Val-Ala-Ser-Pro -Arg-Tyr-His-Thr-Val-Gly-Arg-Ala-Ala-Gly-Leu-Leu-Met-Gly-Leu] (H-YKHVASPRYHTVGRAAGLLMGL-OH; C-terminus assumed) | 240 | – | – | –
2 | CSCC[C@H](NC(=O)[C@H](CC(C)C)NC(=O)[C@H](CC(C)C)NC(=O)CNC(=O)[C@H](C)NC(=O)[C@H](C)NC(=O)[C@H](CCCNC(=N)N)NC(=O)CNC(=O)[C@@H](NC(=O)[C@@H](NC(=O)[C@H](Cc1c[nH]cn1)NC(=O)[C@H](Cc1ccc(O)cc1)NC(=O)[C@H](CCCNC(=N)N)NC(=O)[C@@H]1CCCN1C(=O)[C@H](CO)NC(=O)[C@H](C)NC(=O)[C@@H](NC(=O)[C@@H](N)Cc1c[nH]cn1)C(C)C)[C@@H](C)O)C(C)C)C(=O)NCC(=O)N[C@@H](CC(C)C)C(=O)O [hGPR8L (4-23), His-Val-Ala-Ser-Pro-Arg-Tyr -His-Thr-Val-Gly-Arg-Ala-Ala-Gly-Leu-Leu-Met-Gly-Leu] (H-HVASPRYHTVGRAAGLLMGL-OH; C-terminus assumed) | 2000 | – | – | –
3 | CSCC[C@H](NC(=O)[C@H](CC(C)C)NC(=O)[C@H](CC(C)C)NC(=O)CNC(=O)[C@H](C)NC(=O)[C@H](C)NC(=O)[C@H](CCCNC(=N)N)NC(=O)CNC(=O)[C@@H](NC(=O)[C@@H](NC(=O)[C@H](Cc1c[nH]cn1)NC(=O)[C@H](Cc1ccc(O)cc1)NC(=O)[C@@H](N)CCCNC(=N)N)[C@@H](C)O)C(C)C)C(=O)NCC(=O)N[C@@H](CC(C)C)C(=O)O [hGPRBL (9-23), Arg-Tyr-His-Thr-Val-Gly-Arg -Ala-Ala-Gly-Leu-Leu-Met-Gly-Leu] (H-RYHTVGRAAGLLMGL-OH; C-terminus assumed) | 2500 | – | – | –
4 | CSCC[C@H](NC(=O)[C@H](CC(C)C)NC(=O)[C@H](CC(C)C)NC(=O)CNC(=O)[C@H](C)NC(=O)[C@H](C)NC(=O)[C@H](CCCNC(=N)N)NC(=O)CNC(=O)[C@@H](NC(=O)[C@@H](NC(=O)[C@H](Cc1c[nH]cn1)NC(=O)[C@H](Cc1ccc(O)cc1)NC(=O)[C@H](CCCNC(=N)N)NC(=O)[C@@H]1CCCN1C(=O)[C@H](CO)NC(=O)[C@H](C)NC(=O)[C@@H](NC(=O)[C@H](Cc1c[nH]cn1)NC(=O)[C@H](CCCCN)NC(=O)[C@H](Cc1ccc(O)cc1)NC(=O)[C@@H](N)Cc1c[nH]c2ccccc12)[C@@H](C)O)[C@@H](C)O)C(C)C)C(=O)NCC(=O)N[C@@H](CC(C)C)C(=O)O [pGPR8L (1-23), Trp-Tyr-Lys-His-Val-Ala-Ser -Pro-Arg-Tyr-His-Thr-Val-Gly-Arg-Ala-Ala-Gly-Leu-Leu-Met-Gly-Leu] | – | intracellular cAMP production of the TGR26 expressing CHO cells was inhibited depending on the concentration | GTPγS binding of the TGR26 expressing CHO cells was promoted depending on the concentration | –
5 | SEQ ID NO: 57: porcine homologue of hGPR8L (1-30), ligand peptide to GPR8 deduced from SEQ ID NO: 55 (WYKHTASPRYHTVGRAAGLLMGLRRSPYMW; Porcine) | – | intracellular cAMP production of the TGR26 expressing CHO cells was inhibited depending on the concentration | GTPγS binding of the TGR26 expressing CHO cells was promoted depending on the concentration | can also be confirmed
6 | SEQ ID NO: 74: rat homologue of hGPR8L (1-30), ligand peptide to GPR8 deduced from SEQ ID NO: 72 (WYKHVASPRYHTVGRASGLLMGLRRSPYLW; Rat) | – | intracellular cAMP production of the TGR26 expressing CHO cells was inhibited depending on the concentration | GTPγS binding of the TGR26 expressing CHO cells was promoted depending on the concentration | can also be confirmed
7 | SEQ ID NO: 92: mouse homologue of hGPR8L (1-30), ligand peptide to GPR8 deduced from SEQ ID NO: 90 (WYKHVASPRYHTVGRASGLLMGLRRSPYQW; Mouse) | – | intracellular cAMP production of the TGR26 expressing CHO cells was inhibited depending on the concentration | GTPγS binding of the TGR26 expressing CHO cells was promoted depending on the concentration | can also be confirmed
